From patent US20260250718

Experiments:
Assay in all cases: cell_activity
[1] = test system: T1, Cyin14 (metagenome (uncultured organism))
T1 sequence: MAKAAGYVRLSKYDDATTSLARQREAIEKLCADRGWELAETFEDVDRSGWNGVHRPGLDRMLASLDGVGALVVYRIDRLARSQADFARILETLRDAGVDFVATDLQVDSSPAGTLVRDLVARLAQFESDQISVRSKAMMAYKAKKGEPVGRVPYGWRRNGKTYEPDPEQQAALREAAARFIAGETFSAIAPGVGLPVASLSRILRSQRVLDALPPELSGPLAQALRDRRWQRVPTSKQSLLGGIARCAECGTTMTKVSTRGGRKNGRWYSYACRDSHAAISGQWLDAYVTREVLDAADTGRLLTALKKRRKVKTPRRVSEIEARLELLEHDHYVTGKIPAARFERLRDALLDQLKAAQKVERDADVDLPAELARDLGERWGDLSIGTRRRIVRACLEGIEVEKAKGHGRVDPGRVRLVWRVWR

[2] = test system: T2, Cyin16 (metagenome (uncultured organism)); conditions: EGFP+ 293T cells at day 20
T2 sequence: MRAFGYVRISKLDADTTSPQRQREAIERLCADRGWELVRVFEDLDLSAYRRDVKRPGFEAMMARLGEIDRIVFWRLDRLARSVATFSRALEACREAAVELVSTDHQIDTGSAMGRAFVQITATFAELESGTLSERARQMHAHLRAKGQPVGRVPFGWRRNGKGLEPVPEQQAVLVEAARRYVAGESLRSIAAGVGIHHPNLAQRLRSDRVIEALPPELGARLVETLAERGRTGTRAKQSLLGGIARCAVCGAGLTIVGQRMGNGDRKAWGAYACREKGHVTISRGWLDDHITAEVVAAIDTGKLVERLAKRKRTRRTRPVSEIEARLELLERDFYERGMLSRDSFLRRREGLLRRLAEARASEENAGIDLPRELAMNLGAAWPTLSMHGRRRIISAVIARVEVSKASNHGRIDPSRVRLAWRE

[3] = test system: T3, Cyin11 (metagenome (uncultured organism)); conditions: EGFP+ 293T cells at day 20
T3 sequence: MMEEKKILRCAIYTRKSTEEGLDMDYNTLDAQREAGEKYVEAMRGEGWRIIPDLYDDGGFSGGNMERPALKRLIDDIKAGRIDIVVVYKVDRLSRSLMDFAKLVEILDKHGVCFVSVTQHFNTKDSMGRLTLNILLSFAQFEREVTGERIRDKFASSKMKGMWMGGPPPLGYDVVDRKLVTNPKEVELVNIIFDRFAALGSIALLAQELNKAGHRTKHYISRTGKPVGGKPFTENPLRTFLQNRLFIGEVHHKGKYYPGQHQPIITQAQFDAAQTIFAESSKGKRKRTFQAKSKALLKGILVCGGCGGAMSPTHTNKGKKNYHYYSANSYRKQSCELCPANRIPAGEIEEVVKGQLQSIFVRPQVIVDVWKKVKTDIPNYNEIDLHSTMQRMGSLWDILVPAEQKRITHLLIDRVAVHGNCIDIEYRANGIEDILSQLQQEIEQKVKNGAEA

[4] = test system: T4, Cyin15 (metagenome (uncultured organism)); conditions: EGFP+ 293T cells at day 20
T4 sequence: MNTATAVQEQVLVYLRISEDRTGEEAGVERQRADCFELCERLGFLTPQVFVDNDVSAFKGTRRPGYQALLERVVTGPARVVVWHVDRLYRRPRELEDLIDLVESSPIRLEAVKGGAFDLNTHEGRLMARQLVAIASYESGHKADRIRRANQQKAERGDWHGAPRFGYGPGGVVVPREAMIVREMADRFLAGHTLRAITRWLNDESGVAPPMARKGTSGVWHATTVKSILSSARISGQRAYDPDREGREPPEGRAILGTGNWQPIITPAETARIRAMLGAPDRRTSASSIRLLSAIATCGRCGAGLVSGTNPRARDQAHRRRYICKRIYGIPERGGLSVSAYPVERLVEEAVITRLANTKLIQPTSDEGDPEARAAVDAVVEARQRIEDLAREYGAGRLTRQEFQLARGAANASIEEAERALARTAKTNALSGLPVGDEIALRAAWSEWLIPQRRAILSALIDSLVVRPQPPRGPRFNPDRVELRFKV

[5] = test system: T5, phiC31 integrase (Streptomyces phage phiC31?); conditions: positive control; EGFP+ 293T cells at day 20
T5 sequence: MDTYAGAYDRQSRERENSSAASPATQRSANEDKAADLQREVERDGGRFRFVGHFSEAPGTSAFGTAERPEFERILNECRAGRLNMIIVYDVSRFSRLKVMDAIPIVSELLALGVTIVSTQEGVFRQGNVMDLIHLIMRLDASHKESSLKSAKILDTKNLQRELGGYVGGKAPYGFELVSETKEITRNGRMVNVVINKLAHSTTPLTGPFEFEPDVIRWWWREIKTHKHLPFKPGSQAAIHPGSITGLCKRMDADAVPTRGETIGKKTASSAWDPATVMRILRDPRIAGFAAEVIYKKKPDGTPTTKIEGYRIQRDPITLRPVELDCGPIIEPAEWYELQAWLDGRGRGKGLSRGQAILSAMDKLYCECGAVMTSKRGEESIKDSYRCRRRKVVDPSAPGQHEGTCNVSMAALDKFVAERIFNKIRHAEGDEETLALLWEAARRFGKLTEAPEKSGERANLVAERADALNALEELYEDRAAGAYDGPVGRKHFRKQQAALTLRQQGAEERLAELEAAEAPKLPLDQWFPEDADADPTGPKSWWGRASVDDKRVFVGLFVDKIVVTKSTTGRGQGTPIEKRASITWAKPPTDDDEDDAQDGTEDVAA

[6] = test system: T6, Cyin12 (metagenome (uncultured organism)); conditions: EGFP+ 293T cells at day 20
T6 sequence: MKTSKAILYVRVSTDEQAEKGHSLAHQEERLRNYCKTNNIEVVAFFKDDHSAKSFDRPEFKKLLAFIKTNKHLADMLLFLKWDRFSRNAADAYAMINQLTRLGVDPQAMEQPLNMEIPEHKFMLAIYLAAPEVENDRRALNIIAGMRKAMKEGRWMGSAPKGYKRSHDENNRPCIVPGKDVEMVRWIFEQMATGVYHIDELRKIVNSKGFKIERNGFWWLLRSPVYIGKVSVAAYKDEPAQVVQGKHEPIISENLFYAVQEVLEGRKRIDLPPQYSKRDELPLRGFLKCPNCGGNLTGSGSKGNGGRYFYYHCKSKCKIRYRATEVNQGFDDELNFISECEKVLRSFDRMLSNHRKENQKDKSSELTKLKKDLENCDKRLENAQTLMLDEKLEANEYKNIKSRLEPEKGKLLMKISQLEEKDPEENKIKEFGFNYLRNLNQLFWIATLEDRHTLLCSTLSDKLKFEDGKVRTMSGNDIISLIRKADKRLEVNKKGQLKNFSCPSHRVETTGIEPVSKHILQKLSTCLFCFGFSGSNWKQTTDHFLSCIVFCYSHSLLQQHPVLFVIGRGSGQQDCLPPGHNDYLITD

ACGTATACTGGCGTACACTGATCAAGGAGGGGCCATGGCCAAGGCAGCCGGGTACGTCAGGCTCAGCAAGTACGACGACGCCACCACTAGTCTCGCCCGCCAGCGTGAGGCCATCGAAAAGCTGTGCCCGGCTCTGGGATCGCCTCACCGAGATCGAGCCGCACGCGTTCGAACCGGTGGAGACGAGGTGAAGCCGAACAGGGTCGCGCTCTATCTCCAAGACAAGCACCCCCTCCGCGAGGGGATGAAGTA (double strand) [14-B1]
activity ([1]; EGFP+ 293T cells at day 20): 1.38%

AGCGCCACTTCGTGTGGGGCGTGTTGGAGGATCTCCAAAGCCTCTTCGGCTGAGCCCGCCTCCGTGACGTCGGCGCCCTCCACGCAGTTCTGCAGGACCTGGATGAGGCCCTTTCGAACCAGCGTGTGTACGTGGAGCGGAAGGGGCCGATTATTGACTGAACCGTAGACCAGCCCTATGCTGCTATGGCCGACCAGAGGAGGGGGAGCCATGCGCGCCTTCGGCTACGTCCGGATCTCCAAGCTCGACGCCG (double strand) [16-P2]
activity [2]: 2.33%

ATCCAATGTGCAAGGCCATTTAGATGTCGCTTTGGCAAACACACTCGGCCGTTTGTGTCATGAATTATAATATCAGACATGCTACTGAAAAAGATTTATCTGCACTTTGCGATATTGAACATGAATCTTTATTTCCCAAACCAAAAAATGCGTTACCGTTCCAGCGCGTGCCGGTAATTGCAAATGCGACACCAGATAGGCTTTTATATTTCAGCCCCTGATATTCATAGCCGTCAGCCAGCACATACACAT (double strand) [11-B1]
activity [3]: 1.78%

GGAATCAGCCGGGGCTTCTCGGCCGTCAACATCCGCAAGTTCGTGGTGCGAGCATCGCGCCTGTCGGAGCTGGTCGATCTGCAGAGCCTCACGCCGTCCGCGGCCCTGTTCCTCGAGGCATCCATCCGGGACGACGGCCCCGGAGAGCGATCCCGCTGTGAGCAGGCCGCCCTCGGCAATGTCGAGCGCCGCATGCTGGCCGACCACCTGTTCGATCTCGCTTGCGAGCACCGGCTTCACCGCTGGGTCCGCGCT (double strand) [15-B2]
activity [4]: 1.12%

GGGTATTCGGCCTCTCTCCCCGTCACGTCCGCGACGTCTTCGTCGCCGGGGAGCTGGTGGTGGAAGACCGGCGGCCAACGCGGGTCCAGCCGGAGGACATCGTCTGGGACGCCGCCGCGGAGGCCGCGCCGACCGCGGCTGGGAGCTCGCCGAGACCTTCGAGGACGTGGACCGCTCCGGGTGGAACGGGGTTCACCGGCCCGGGCTCGACCGGATGCTGGCCTCACTCGACGGCGTTGGCGCGCTGGTCGT (double strand) [14-P1]
activity ([1]; EGFP+ 293T cells at day 20, donor plasmid integration into genome, significantly above no-integrase control): 10.1%

GTCGACGATGTAGGTCACGGTCTCGAAGCCGCGGTGCGGGTGCCAGGGCGTGCCCTTGGGCTCCCCGGGCGCGTACTCCACCTCACCCATCTGGTCCATCATGATGAACGGGTCGAGGTGGCGGTAGTTGATCCCGGCGAACGCGCGGCGCACCGGGAAGCCCTCGCCCTCGAAACCGCTGGGCGCGGTGGTCACGGTGAGCACGGGACGTGCGACGGCGTCGGCGGGTGCGGATACGCGGGGCAGCGTCAGCGGGTTCTCGACGGTCACGGCGGGCATGTCGAC (double strand) [phiC31 attB]
activity [5]: 8.87%

TCGATTCGGTTCGCCGCGCCGCTACCGGATCGCGCCGAAGAGATGACTGATCTCGAGGCTCCGGCCCGAAGGCCTCCTCAACGGCTTCGAGGATCGATTCGGCGCGCACGGGTGCCTCTCTCCGCGCGCCAGCGCGAGGCAATCGAGCGCCTCTGTGCTGACCGCGGGTGGGAGCTCGTTCGAGTCTTCGAGGATCTCGACCTCTCGGCCTACCGCCGCGACGTGAAGCGGCCGGGCTTCGAGGCCATGATGG (double strand) [16-P1]
activity [2]: 1.69%

TGCCGGCCAGTGCCGTCTCGGAGGTGGTGAACCAGGTTTCGGATGAAGTCGTCGGCCTCGGTCCCATCGAGCGATTGCTCAAGGACCCGGAGATCAGCGAGGTGATGGTGAACGGGGCCGACGACGTGGTCGTCGACCAGGAGGACCTTCACGAGGCCGCCTCTCGCAACGGGAACCGGGCCACGACCCGCGTGCCCTTCCCCGGCCGCGGATAGACGTAGAGCCTGCCCCCAGCCTCCCGCACGCGGCGGCG (double strand) [16-B2]
activity ([2]; significantly above no-integrase control): 4.23%

TTGTCTTCCTCTGCAGTCAATTGTTTTGGATCATCTTTTTTGGGAACAACAAGATTACTTTGAACATTATCTCTATTTACACCGGTTGAAACCTGGTCCTTCTTATTAAGAACTTCTGTATTTGTCAAAGCAATTCTTTATGTCAGAGTGAGTACAGACGAACAGGCTGAAAAAGGTCACAGTCTGGCTCATCAGGAAGAACGACTTCGTAATTATTGCAAAACAAATAATATCGAGGTCGTTGCTTTTTTTA (double strand) [12-P1]
activity [6]: 1.53%
